Target: mLRP/LRPTmMegT mini-receptor (fourth ligand binding and transmembrane domains of LRP1 with the C-terminal … (UniProt Q07954 3293-4444))
Assay: cell-based or functional assay

mLRP/LRPTmMegT mini-receptor (fourth ligand binding and transmembrane domains of LRP1 with the C-terminal …, sequence (Q07954 3293-4444): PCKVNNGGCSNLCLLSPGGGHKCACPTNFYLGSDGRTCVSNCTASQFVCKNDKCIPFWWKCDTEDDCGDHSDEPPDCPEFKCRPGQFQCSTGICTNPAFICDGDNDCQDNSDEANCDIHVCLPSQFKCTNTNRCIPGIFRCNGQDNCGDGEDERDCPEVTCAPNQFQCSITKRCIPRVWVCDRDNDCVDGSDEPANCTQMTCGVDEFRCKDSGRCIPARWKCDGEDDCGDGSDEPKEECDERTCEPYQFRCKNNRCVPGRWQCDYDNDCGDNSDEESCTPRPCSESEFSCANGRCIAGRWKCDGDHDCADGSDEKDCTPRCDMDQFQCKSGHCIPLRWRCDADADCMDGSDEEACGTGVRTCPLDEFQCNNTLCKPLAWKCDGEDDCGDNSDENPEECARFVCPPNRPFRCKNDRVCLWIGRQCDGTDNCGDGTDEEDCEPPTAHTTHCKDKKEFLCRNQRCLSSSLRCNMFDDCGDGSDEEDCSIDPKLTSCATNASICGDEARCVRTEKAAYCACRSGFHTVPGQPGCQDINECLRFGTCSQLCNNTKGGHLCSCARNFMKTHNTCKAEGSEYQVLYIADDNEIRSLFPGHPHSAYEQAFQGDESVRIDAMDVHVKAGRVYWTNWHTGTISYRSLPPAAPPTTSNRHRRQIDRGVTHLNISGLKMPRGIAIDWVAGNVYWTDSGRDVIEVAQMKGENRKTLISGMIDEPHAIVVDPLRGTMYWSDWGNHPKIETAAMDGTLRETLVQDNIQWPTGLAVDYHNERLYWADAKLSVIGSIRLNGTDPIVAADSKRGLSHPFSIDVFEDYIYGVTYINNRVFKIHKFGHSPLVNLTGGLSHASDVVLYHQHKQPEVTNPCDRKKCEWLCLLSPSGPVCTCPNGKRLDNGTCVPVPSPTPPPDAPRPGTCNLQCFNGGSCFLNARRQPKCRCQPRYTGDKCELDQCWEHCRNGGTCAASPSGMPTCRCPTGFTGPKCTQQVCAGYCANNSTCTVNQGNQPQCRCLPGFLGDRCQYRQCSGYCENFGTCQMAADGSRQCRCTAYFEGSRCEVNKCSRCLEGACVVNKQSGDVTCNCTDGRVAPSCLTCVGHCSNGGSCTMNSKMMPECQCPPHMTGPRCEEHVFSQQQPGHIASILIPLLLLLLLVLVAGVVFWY

ratio of the apical-to-basolateral to the basolateral-to-apical permeability coefficient of 125I-RAP in MEGt-transfected MDCK cells: 460 fold
B1: receptor-associated protein (RAP) (ligand)
chain: YSREKNQPKPSPKRESGEEFRMEKLNQLWEKAQRLHLPPVRLAELHADLKIQERDELAWKKLKLDGLDEDGEKEARLIRNLNVILAKYGLDGKKDARQVTSNSLSGTQEDGLDDPRLEKLWHKAKTSGKFSGEELDKLWREFLHHKEKVHEYNVLLETLSRTEEIHENVISPSDLSDIKGSVLHSRHTELKEKLRSINQGLDRLRRVSHQGYSTEAEFEEPRVIDLWDLAQSANLTDKELEAFREELKHFEAKIEKHNHYQKQLEIAHEKLRHAESVGDGERVSRSREKHALLEGRTKELGYTVKKHLQDLSGRISRARHNEL
